For one molecule, Kd results are on record in article PMC9231623 (2022).

For orientation: Kd means the equilibrium constant for the complex coming apart.

This experiment has as its target T1, SNX5 PX domain (UniProt Q9Y5X3 25-172).
T1 chain: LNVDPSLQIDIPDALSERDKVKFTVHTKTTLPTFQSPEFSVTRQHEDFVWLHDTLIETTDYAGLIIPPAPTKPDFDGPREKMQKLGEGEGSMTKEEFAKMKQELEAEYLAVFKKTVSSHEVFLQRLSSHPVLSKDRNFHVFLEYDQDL
The experiment is described as follows: ITC.

B1: NRP1 peptide (residues 894 to 918 of the cytosolic tail) (peptide)
peptide: not shown
The molecule B1 yielded a Kd of 17.6 µM.
